Data reported in patent publication US10941182 (Amgen, dated 2021).
Starred links: 1 amine or outer side, 2 acyl side, 3 side chain; linkers in the order of their positions; H or OH if unused. Non-standard residues stand in square brackets, D forms with d. Primed or numbered codes have the meaning given here. *: point of attachment. NPipG = 2-(piperidin-4-ylamino)acetic acid, O=C(CN(C1CCN([*:3])CC1)[*:1])[*:2]; AC4Abu = α-carboxy-4-aminobutyric acid, O=C(C(CCN[*:1])C(=O)[*:3])[*:2]; Bip = N[C@@H](Cc1ccc(-c2ccccc2)cc1)C(=O)O; Oic = O=C(O)[C@@H]1C[C@@H]2CCCC[C@@H]2N1; Phe(4-Cl) = N[C@@H](Cc1ccc(Cl)cc1)C(=O)O; Phe(4-F) = N[C@@H](Cc1ccc(F)cc1)C(=O)O; γGlu = O=C(O)[C@H](CCC(=O)[*:2])N[*:1]; d(β3hF) = N[C@@H](CC(=O)O)Cc1ccccc1; Igl = N[C@H](C(=O)O)C1Cc2ccccc2C1; NMeR = CN[C@@H](CCCNC(=N)N)C(=O)O; Palmitoyl = CCCCCCCCCCCCCCCC(=O)*; hArg = N=C(N)NCCCC[C@H](N)C(=O)O; 3Pal = N[C@@H](Cc1cccnc1)C(=O)O; Cha = N[C@@H](CC1CCCCC1)C(=O)O; αMeL = CC(C)C[C@](C)(N)C(=O)O; αMeOrn = C[C@](N)(CCCN)C(=O)O; β3hP = O=C(O)C[C@@H]1CCCN1; αMeS = C[C@](N)(CO)C(=O)O; Nle = CCCC[C@H](N)C(=O)O; Orn = NCCC[C@H](N)C(=O)O; Dab = NCC[C@H](N)C(=O)O; Pip′ = not defined here; Dap = NC[C@H](N)C(=O)O; AEEA = NCCOCCOCC(=O)O; Aib = CC(C)(N)C(=O)O; NPrGly = CCCNCC(=O)O; BLeu = β-leucine; Sar = CNCC(=O)O

T1: rat APJ receptor (rat, UniProt Q9JHG3 1-377)
T1 sequence (looked up): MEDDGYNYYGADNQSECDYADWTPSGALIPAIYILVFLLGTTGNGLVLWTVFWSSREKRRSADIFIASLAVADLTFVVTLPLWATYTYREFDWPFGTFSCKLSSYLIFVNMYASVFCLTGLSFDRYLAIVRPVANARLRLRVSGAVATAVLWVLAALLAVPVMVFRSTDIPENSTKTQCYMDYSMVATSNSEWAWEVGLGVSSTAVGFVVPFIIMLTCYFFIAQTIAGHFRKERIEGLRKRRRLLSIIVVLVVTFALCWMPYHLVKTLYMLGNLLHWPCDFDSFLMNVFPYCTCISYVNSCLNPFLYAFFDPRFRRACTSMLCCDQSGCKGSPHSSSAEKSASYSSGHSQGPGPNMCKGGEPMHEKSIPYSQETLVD

T2: human APJ receptor (human, UniProt P35414 1-380)
T2 sequence (looked up): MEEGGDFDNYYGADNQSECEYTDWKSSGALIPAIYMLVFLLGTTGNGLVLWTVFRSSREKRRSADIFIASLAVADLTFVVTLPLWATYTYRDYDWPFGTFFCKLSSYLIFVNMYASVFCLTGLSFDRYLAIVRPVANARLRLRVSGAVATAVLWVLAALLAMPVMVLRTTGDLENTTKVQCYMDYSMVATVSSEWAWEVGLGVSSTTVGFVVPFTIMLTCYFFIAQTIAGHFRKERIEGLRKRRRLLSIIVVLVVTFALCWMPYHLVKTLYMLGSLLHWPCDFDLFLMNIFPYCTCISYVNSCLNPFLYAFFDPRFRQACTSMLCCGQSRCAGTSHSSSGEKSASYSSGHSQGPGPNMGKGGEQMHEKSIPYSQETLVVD

B1: SEQ ID NO: 632 (peptide)
peptide: Palmitoyl-[γGlu][AEEA][AEEA][dQ]RP[NMeR][αMeL]SH[NPipG]G[Oic][Nle][β3hP][Phe(4-Cl)]-OH
SMILES: CCCCCCCCCCCCCCCC(=O)N[C@@H](CCC(=O)NCCOCCOCC(=O)NCCOCCOCC(=O)N[C@H](CCC(N)=O)C(=O)N[C@@H](CCCNC(=N)N)C(=O)N1CCC[C@H]1C(=O)N(C)[C@@H](CCCNC(=N)N)C(=O)N[C@@](C)(CC(C)C)C(=O)N[C@@H](CO)C(=O)N[C@@H](Cc1c[nH]cn1)C(=O)N(CC(=O)NCC(=O)N1[C@H](C(=O)N[C@@H](CCCC)C(=O)N2CCC[C@H]2CC(=O)N[C@@H](Cc2ccc(Cl)cc2)C(=O)O)C[C@@H]2CCCC[C@@H]21)C1CCNCC1)C(=O)O
B2: SEQ ID NO: 636 (peptide)
peptide: Palmitoyl-[γGlu][AEEA][AEEA][dQ]RP[NMeR][αMeL]SH[3Pal]G[Oic][Nle][β3hP][Phe(4-Cl)]-OH
SMILES: CCCCCCCCCCCCCCCC(=O)N[C@@H](CCC(=O)NCCOCCOCC(=O)NCCOCCOCC(=O)N[C@H](CCC(N)=O)C(=O)N[C@@H](CCCNC(=N)N)C(=O)N1CCC[C@H]1C(=O)N(C)[C@@H](CCCNC(=N)N)C(=O)N[C@@](C)(CC(C)C)C(=O)N[C@@H](CO)C(=O)N[C@@H](Cc1c[nH]cn1)C(=O)N[C@@H](Cc1cccnc1)C(=O)NCC(=O)N1[C@H](C(=O)N[C@@H](CCCC)C(=O)N2CCC[C@H]2CC(=O)N[C@@H](Cc2ccc(Cl)cc2)C(=O)O)C[C@@H]2CCCC[C@@H]21)C(=O)O
B3: SEQ ID NO: 635 (peptide)
peptide: Palmitoyl-[γGlu][AEEA][AEEA][dQ]RP[NMeR][αMeL]SH[αMeOrn]G[Oic][Nle][β3hP][Phe(4-Cl)]-OH
SMILES: CCCCCCCCCCCCCCCC(=O)N[C@@H](CCC(=O)NCCOCCOCC(=O)NCCOCCOCC(=O)N[C@H](CCC(N)=O)C(=O)N[C@@H](CCCNC(=N)N)C(=O)N1CCC[C@H]1C(=O)N(C)[C@@H](CCCNC(=N)N)C(=O)N[C@@](C)(CC(C)C)C(=O)N[C@@H](CO)C(=O)N[C@@H](Cc1c[nH]cn1)C(=O)N[C@@](C)(CCCN)C(=O)NCC(=O)N1[C@H](C(=O)N[C@@H](CCCC)C(=O)N2CCC[C@H]2CC(=O)N[C@@H](Cc2ccc(Cl)cc2)C(=O)O)C[C@@H]2CCCC[C@@H]21)C(=O)O
B4: SEQ ID NO: 627 (peptide)
peptide: Palmitoyl-[γGlu][AEEA][AEEA][dQ]RP[NMeR][αMeL][αMeS]HKG[Oic][Nle][β3hP][Phe(4-Cl)]-OH
SMILES: CCCCCCCCCCCCCCCC(=O)N[C@@H](CCC(=O)NCCOCCOCC(=O)NCCOCCOCC(=O)N[C@H](CCC(N)=O)C(=O)N[C@@H](CCCNC(=N)N)C(=O)N1CCC[C@H]1C(=O)N(C)[C@@H](CCCNC(=N)N)C(=O)N[C@@](C)(CC(C)C)C(=O)N[C@@](C)(CO)C(=O)N[C@@H](Cc1c[nH]cn1)C(=O)N[C@@H](CCCCN)C(=O)NCC(=O)N1[C@H](C(=O)N[C@@H](CCCC)C(=O)N2CCC[C@H]2CC(=O)N[C@@H](Cc2ccc(Cl)cc2)C(=O)O)C[C@@H]2CCCC[C@@H]21)C(=O)O
B5: SEQ ID NO: 634 (peptide)
peptide: Palmitoyl-[γGlu][AEEA][AEEA][dQ]RP[NMeR][αMeL]SH[Orn]G[Oic][Nle][β3hP][Phe(4-Cl)]-OH
SMILES: CCCCCCCCCCCCCCCC(=O)N[C@@H](CCC(=O)NCCOCCOCC(=O)NCCOCCOCC(=O)N[C@H](CCC(N)=O)C(=O)N[C@@H](CCCNC(=N)N)C(=O)N1CCC[C@H]1C(=O)N(C)[C@@H](CCCNC(=N)N)C(=O)N[C@@](C)(CC(C)C)C(=O)N[C@@H](CO)C(=O)N[C@@H](Cc1c[nH]cn1)C(=O)N[C@@H](CCCN)C(=O)NCC(=O)N1[C@H](C(=O)N[C@@H](CCCC)C(=O)N2CCC[C@H]2CC(=O)N[C@@H](Cc2ccc(Cl)cc2)C(=O)O)C[C@@H]2CCCC[C@@H]21)C(=O)O
B6: SEQ ID NO: 614 (peptide)
peptide: Palmitoyl-[γGlu][AEEA][AEEA][dQ][hArg]P[dR][Cha]SHKG[Oic][Nle]P[d(β3hF)]-OH
SMILES: CCCCCCCCCCCCCCCC(=O)N[C@@H](CCC(=O)NCCOCCOCC(=O)NCCOCCOCC(=O)N[C@H](CCC(N)=O)C(=O)N[C@@H](CCCCNC(=N)N)C(=O)N1CCC[C@H]1C(=O)N[C@H](CCCNC(=N)N)C(=O)N[C@@H](CC1CCCCC1)C(=O)N[C@@H](CO)C(=O)N[C@@H](Cc1c[nH]cn1)C(=O)N[C@@H](CCCCN)C(=O)NCC(=O)N1[C@H](C(=O)N[C@@H](CCCC)C(=O)N2CCC[C@H]2C(=O)N[C@@H](CC(=O)O)Cc2ccccc2)C[C@@H]2CCCC[C@@H]21)C(=O)O
B7: SEQ ID NO: 629 (peptide)
peptide: Palmitoyl-[γGlu][AEEA][AEEA][dQ]RP[NMeR][αMeL]S[Bip]KG[Oic][Nle][β3hP][Phe(4-Cl)]-OH
SMILES: CCCCCCCCCCCCCCCC(=O)N[C@@H](CCC(=O)NCCOCCOCC(=O)NCCOCCOCC(=O)N[C@H](CCC(N)=O)C(=O)N[C@@H](CCCNC(=N)N)C(=O)N1CCC[C@H]1C(=O)N(C)[C@@H](CCCNC(=N)N)C(=O)N[C@@](C)(CC(C)C)C(=O)N[C@@H](CO)C(=O)N[C@@H](Cc1ccc(-c2ccccc2)cc1)C(=O)N[C@@H](CCCCN)C(=O)NCC(=O)N1[C@H](C(=O)N[C@@H](CCCC)C(=O)N2CCC[C@H]2CC(=O)N[C@@H](Cc2ccc(Cl)cc2)C(=O)O)C[C@@H]2CCCC[C@@H]21)C(=O)O

These binders were tested against T1, rat APJ receptor (assay: cell-based or functional assay).

Row | Binder | EC50 Rat APJ Receptor [nM]
1 | Palmitoyl-[γGlu][AEEA][AEEA][dQ]RP[NMeR][αMeL][BLeu]HKG[Oic][Nle][β3hP][Phe(4-Cl)]-OH [SEQ ID NO: 628] | 0.773
2 | B1 | 22
3 | Palmitoyl-[γGlu][AEEA][AEEA][dQ]RP[NMeR][αMeL]SHKG[Oic][Nle][β3hP][Phe(4-Cl)]-OH (not fully specified (residue 10)) [SEQ ID NO: 631] | 0.699
4 | B2 | 3.65
5 | Palmitoyl-[γGlu][AEEA][AEEA][dQ]RP[NMeR][Cha][BLeu]HKG[Oic][Nle][β3hP][d(β3hF)]-OH [SEQ ID NO: 615] | 23.2
6 | Palmitoyl-[γGlu][AEEA][AEEA][dQ]RP[NMeR][αMeL]SH[Dab]G[Oic][Nle][β3hP][Phe(4-Cl)]-OH [SEQ ID NO: 638] | 9.32
7 | B3 | 6.64
8 | Palmitoyl-[AC4Abu][AEEA][AEEA][dQ]RP[NMeR][αMeL]SH[Igl]G[Oic][Nle][β3hP][Phe(4-Cl)]-OH [SEQ ID NO: 640] | 25.2
9 | Palmitoyl-[γGlu][AEEA][AEEA][dQ]RP[NMeR][αMeL]SH[Phe(4-F)]G[Oic][Nle][β3hP][Phe(4-Cl)]-OH [SEQ ID NO: 637] | 14.2
10 | Palmitoyl-[AC4Abu][AEEA][AEEA][dQ]RP[NMeR][Cha][NPrGly]HKG[Pip′][Nle][Aib][Phe(4-Cl)]-OH [SEQ ID NO: 643] | 3.79
11 | Palmitoyl-[AC4Abu][AEEA][AEEA][dQ]RP[NMeR][αMeL]SHK[Sar][Oic][Nle][β3hP][Phe(4-Cl)]-OH [SEQ ID NO: 641] | 3.66
12 | B4 | 0.641
13 | B5 | 2.21
14 | Palmitoyl-[AC4Abu][AEEA][AEEA][dQ][NPipG]P[NMeR][Cha]SHKG[Pip′][Nle][Aib][Phe(4-Cl)]-OH [SEQ ID NO: 646] | 0.994
15 | B6 | 10.3
16 | B7 | 5.3
17 | Palmitoyl-[γGlu][AEEA][AEEA][dQ]RP[NMeR][αMeL]SH[Dap]G[Oic][Nle][β3hP][Phe(4-Cl)]-OH [SEQ ID NO: 639] | 15.4

What follows are binders tested against T2, human APJ receptor (assay: cell-based or functional assay).

Row | Binder | EC50 Human APJ Receptor [nM]
18 | Palmitoyl-[γGlu][AEEA][AEEA][dQ]RP[NMeR][αMeL][BLeu]HKG[Oic][Nle][β3hP][Phe(4-Cl)]-OH [SEQ ID NO: 628] | 0.309
19 | B1 | 3.02
20 | Palmitoyl-[γGlu][AEEA][AEEA][dQ]RP[NMeR][αMeL]SHKG[Oic][Nle][β3hP][Phe(4-Cl)]-OH (not fully specified (residue 10)) [SEQ ID NO: 631] | 0.338
21 | B2 | 1.59
22 | Palmitoyl-[γGlu][AEEA][AEEA][dQ]RP[NMeR][Cha][BLeu]HKG[Oic][Nle][β3hP][d(β3hF)]-OH [SEQ ID NO: 615] | 9.42
23 | Palmitoyl-[γGlu][AEEA][AEEA][dQ]RP[NMeR][αMeL]SH[Dab]G[Oic][Nle][β3hP][Phe(4-Cl)]-OH [SEQ ID NO: 638] | 3.2
24 | B3 | 1.62
25 | Palmitoyl-[AC4Abu][AEEA][AEEA][dQ]RP[NMeR][αMeL]SH[Igl]G[Oic][Nle][β3hP][Phe(4-Cl)]-OH [SEQ ID NO: 640] | 4.03
26 | Palmitoyl-[γGlu][AEEA][AEEA][dQ]RP[NMeR][αMeL]SH[Phe(4-F)]G[Oic][Nle][β3hP][Phe(4-Cl)]-OH [SEQ ID NO: 637] | 4.05
27 | Palmitoyl-[AC4Abu][AEEA][AEEA][dQ]RP[NMeR][Cha][NPrGly]HKG[Pip′][Nle][Aib][Phe(4-Cl)]-OH [SEQ ID NO: 643] | 0.463
28 | Palmitoyl-[AC4Abu][AEEA][AEEA][dQ]RP[NMeR][αMeL]SHK[Sar][Oic][Nle][β3hP][Phe(4-Cl)]-OH [SEQ ID NO: 641] | 0.58
29 | B4 | 0.244
30 | B5 | 0.164
31 | Palmitoyl-[AC4Abu][AEEA][AEEA][dQ][NPipG]P[NMeR][Cha]SHKG[Pip′][Nle][Aib][Phe(4-Cl)]-OH [SEQ ID NO: 646] | 0.27
32 | B6 | 1.25
33 | B7 | 2.45
34 | Palmitoyl-[γGlu][AEEA][AEEA][dQ]RP[NMeR][αMeL]SH[Dap]G[Oic][Nle][β3hP][Phe(4-Cl)]-OH [SEQ ID NO: 639] | 3.28
